Data as given in WO2015050959A1 (dated 2015).
Residue numbers refer to the chain shown, from its start.

How the values were obtained:
[1] = molecular target: Wild type KIT expressed on cells (UniProt P10721 26-976, limits assumed); assay: cell-based or functional assay
[2] = molecular target: T1, Soluble KITD4-5 fragment (amino acids 308-514) (human, UniProt P10721 308-514, glycosylated Asn320 (partial deglycosylation with endoglycosidase F1)); assay: SPR (Biacore T100, 25 C), KITD4-5 amine-coupled to a CM5 chip, Fab as analyte 0.12-10 nM, 1:1 Langmuir fit
T1 construct: range 308-514; Expressed in Sf9 insect cells with an N-terminal His-tag and a TEV site; also called KITm-5; KITm-s

[3] = molecular target: T1, Soluble KITD4-5 fragment (amino acids …); assay: SPR (Biacore T100, 25 C), KITD4-5 amine-coupled to a CM5 chip, Fab as analyte, long dissociation time, 1:1 Langmuir fit

B1: IgG 79D (antibody, V domains shown)
VH: EVQLVESGGGLVQPGGSLRLSCAASGFNISVYMMHWVRQAPGKGLEWVASIYPYSGYTYYADSVKGRFTISADTSKNTAYLQMNSLRAEDTAVYYCARYVYHALDYWGQGTLVTVSS
VL: DIQMTQSPSSLSASVGDRVTITCRASQRGLRNVAVAWYQQKPGKAPKLLIYSASSLYSGVPSRFSGSRSGTDFTLTISSLQPEDFATYYCQQWAVHSLITFGQGTKVEIKR
[1]
  concentration at which KIT autophosphorylation was inhibited (NIH-3T3 cells expressing wt KIT, SCF stimulation): 1 nM

B2: Fab19 (Fab)
VH: B1 VH with V31S, M33S
light: DIQMTQSPSSLSASVGDRVTITCRASQSVSSAVAWYQQKPGKAPKLLIYSASSLYSGVPSRFSGSRSGTDFTLTISSLQPEDFATYYCQQWAVHSLITFGQGTKVEIKRTVAAPSVFIFPPSDSQLKSGTASVVCLLNNFYPREAKVQWKVDNALQSGNSQESVTEQDSKDSTYSLSSTLTLSKADYEKHKVYACEVTHQGLSSPVTKSFNRGECGGSDYKDDDDK
notes: Human synthetic Fab from phage library F, made in E. coli; Light chain carries a C-terminal Flag-tag; also called parental synthetic Fab; anti-D4 Fab
[1]
  concentration at which KIT autophosphorylation was inhibited (NIH-3T3 cells expressing wt KIT, SCF stimulation): 50 nM
[2]
  Kd: 0.63 nM

B3: Fab79D (Fab)
heavy: EVQLVESGGGLVQPGGSLRLSCAASGFNISVYMMHWVRQAPGKGLEWVASIYPYSGYTYYADSVKGRFTISADTSKNTAYLQMNSLRAEDTAVYYCARYVYHALDYWGQGTLVTVSSASTKGPSVFPLAPSSKSTSGGTAALGCLVKDYFPEPVTVSWNSGALTSGVHTFPAVLQSSGLYSLSSVVTVPSSSLGTQTYICNVNHKPSNTKVDKKVEPKSC
light: DIQMTQSPSSLSASVGDRVTITCRASQRGLRNVAVAWYQQKPGKAPKLLIYSASSLYSGVPSRFSGSRSGTDFTLTISSLQPEDFATYYCQQWAVHSLITFGQGTKVEIKRTVAAPSVFIFPPSDSQLKSGTASVVCLLNNFYPREAKVQWKVDNALQSGNSQESVTEQDSKDSTYSLSSTLTLSKADYEKHKVYACEVTHQGLSSPVTKSFNRGECGGSDYKDDDDK
notes: Made in E. coli; also called last generation Fab; KIT79D (Fab)
[3]
  Kd: 0.0064 nM
